Data as given in PMC4507496 (Biochemical and biophysical research communications, 2015).

Target: T1, ATG7 W243A (human, UniProt O95352 1-703, W243A)
T1 sequence (looked up): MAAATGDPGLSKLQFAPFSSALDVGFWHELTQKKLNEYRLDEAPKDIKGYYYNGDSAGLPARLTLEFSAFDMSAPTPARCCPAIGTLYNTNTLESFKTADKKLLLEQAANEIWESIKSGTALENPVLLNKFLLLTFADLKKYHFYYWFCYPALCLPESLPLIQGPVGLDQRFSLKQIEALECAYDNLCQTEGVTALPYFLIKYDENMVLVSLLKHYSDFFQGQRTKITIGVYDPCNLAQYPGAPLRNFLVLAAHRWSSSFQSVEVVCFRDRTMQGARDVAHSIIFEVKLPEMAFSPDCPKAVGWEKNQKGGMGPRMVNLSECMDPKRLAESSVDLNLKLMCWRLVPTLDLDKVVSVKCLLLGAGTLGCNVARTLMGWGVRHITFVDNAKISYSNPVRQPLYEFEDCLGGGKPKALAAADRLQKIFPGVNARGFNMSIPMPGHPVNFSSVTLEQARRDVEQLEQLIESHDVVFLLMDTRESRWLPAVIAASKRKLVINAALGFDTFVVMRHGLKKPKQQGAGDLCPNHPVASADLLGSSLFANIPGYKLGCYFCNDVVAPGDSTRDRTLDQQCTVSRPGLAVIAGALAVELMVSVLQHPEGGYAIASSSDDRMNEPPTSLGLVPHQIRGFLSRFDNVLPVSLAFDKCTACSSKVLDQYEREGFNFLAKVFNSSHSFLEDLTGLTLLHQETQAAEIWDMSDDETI
Test: pull-down

binding result: binds
B1: GST-ATG3 (enzyme)
chain: not shown
